From the RNAGym collection of RNA variant scans (doi:10.7554/elife.80360)

B1: Hairpin Ribozyme (parent)
chain: GUCCUCUUUCACGUGCGCGUGAAAGAGAGAAGUGAACCAGAGAAACACACGUUGUGGUAUAUUACCUGGUA

Variants of: B1
Test: self-cleavage, relative activity (ratio to wild type); higher = more cleavage; co-transcriptional

Row | Variant | self-cleavage
1 | C38U C65G | 0.164
2 | A36G A41C | 1.1
3 | A36G G51A | 0.943
4 | A36G U70C | 1.35
5 | A36G U70A | 1.11
6 | C38G A47G | 0.116
7 | C38G A47C | 0.128
8 | A36G U55A | 0.301
9 | A36G A44U | 0.0711
10 | C38G A39U | 0.209
11 | C37G U55G | 0.119
12 | A36U G42A | 0.115
13 | C37A U52G | 0.224
14 | C37G U58C | 0.335
15 | C37G U58A | 0.202
16 | C37A C38A | 0.144
17 | C37A C38U | 0.0834
18 | C38G A71C | 0.272
19 | A39C C65U | 0.401
20 | A39C C65G | 0.167
21 | C38A A49U | 0.0928
22 | A36C U70A | 0.958
23 | A39C U70A | 0.188
24 | A39C U70G | 0.232

Row | Variant | self-cleavage
25 | C37U C38A | 0.145
26 | C37U G68A | 0.257
27 | C38A G54C | 0.164
28 | C38A G54A | 0.0977
29 | C38A G54U | 0.135
30 | A39C A43U | 0.123
31 | A39C A43C | 0.14
32 | A39C A44U | 0.129
33 | C37A G68U | 0.332
34 | C38U U67G | 0.204
35 | A39C G57U | 0.16
36 | A39C G57C | 0.127
37 | A36U C50A | 0.242
38 | A36C U63C | 0.259
39 | A39G A64G | 0.275
40 | A36G A71U | 1.04
41 | C37G C50U | 0.214
42 | C37G C50A | 0.14
43 | C38U G68C | 0.171
44 | C37G U67A | 0.263
45 | C37A A41C | 0.365
46 | C37A A41U | 0.429
47 | A36U A47C | 0.146
48 | A36G U62A | 0.179

Row | Variant | self-cleavage
49 | C38G U52G | 0.0784
50 | C38G U52A | 0.169
51 | C38G U52C | 0.224
52 | C37U G54A | 0.397
53 | C37U G54U | 0.443
54 | A36C U60C | 0.794
55 | A36C U60G | 0.361
56 | C38G G57A | 0.0627
57 | C38U A61U | 0.164
58 | C37A G42U | 0.165
59 | C38A U62G | 0.139
60 | C38A C66G | 0.114
61 | A36U G40C | 0.101
62 | A36U G40U | 0.126
63 | A39C U67G | 0.548
64 | C38G U60A | 0.116
65 | A39C G40C | 0.0323
66 | A36U G54U | 0.325
67 | C37A U53A | 0.356
68 | C37A U53C | 0.515
69 | A39C A61C | 0.117
70 | C37G C65A | 0.179
71 | C37G C65U | 0.334
72 | C38U U60G | 0.431

Row | Variant | self-cleavage
73 | C38G U62G | 0.0875
74 | A36G C65G | 0.138
75 | A36G C65U | 0.267
76 | A36G G57C | 0.124
77 | A36G G57A | 0.148
78 | C38U G69C | 0.158
79 | C37U U62C | 0.0928
80 | C38A G57U | 0.0968
81 | C38A G57C | 0.157
82 | C38A G57A | 0.0809
83 | A36G U52G | 0.882
84 | A36U G57U | 0.209
85 | A36U G57A | 0.108
86 | C38G A44U | 0.207
87 | A36U A61U | 0.213
88 | A36U A61G | 0.156
89 | C38G U67G | 0.124
90 | C37A A43G | 0.0981
91 | A36C U67G | 0.175
92 | A36C U67A | 0.174
93 | A36C U67C | 0.102
94 | A39C C66A | 0.152
95 | C37U C50U | 0.289
96 | C37U C50A | 0.116

Row | Variant | self-cleavage
97 | C37G A64G | 0.15
98 | C38U C50A | 0.207
99 | C37G G51U | 0.405
100 | C37U U70G | 0.505
101 | A36G A47G | 0.106
102 | C37G G40C | 0.13
103 | A36U A39G | 0.344
104 | A39C G56A | 0.193
105 | C38G G51A | 0.271
106 | C38G G51U | 0.312
107 | A39C U52A | 0.543
108 | C38U U52C | 0.598
109 | C37G U60G | 0.245
110 | C37G U60A | 0.197
111 | C37G A47U | 0.113
112 | C38G A45U | 0.156
113 | A36U U62G | 0.216
114 | A36U U62A | 0.154
115 | C37A A61U | 0.142
116 | C37A A61C | 0.136
117 | A39C A64C | 0.193
118 | A39C C48G | 0.256
119 | C38A U55G | 0.183
120 | C38A U55A | 0.133

Row | Variant | self-cleavage
121 | A36U C66U | 0.166
122 | A36U C66G | 0.338
123 | C37U G51U | 0.81
124 | A36G A61G | 0.154
125 | A36G A61U | 0.205
126 | C38A G42A | 0.111
127 | A39G A44U | 0.103
128 | C38G G42A | 0.103
129 | A39G C50A | 0.196
130 | A39G A49U | 0.0948
131 | A36G A45C | 0.189
132 | C38U G57C | 0.182
133 | A36G A43G | 0.0267
134 | A36G A39U | 0.517
135 | A36G A39G | 0.513
136 | A36G C48A | 0.196
137 | A36G C48U | 0.228
138 | C37G G42A | 0.117
139 | A36U C65A | 0.502
140 | C38G A61C | 0.133
141 | A39G A41C | 0.267
142 | C38G C48G | 0.071
143 | C38G C48U | 0.108
144 | C37G G56U | 0.0996

Row | Variant | self-cleavage
145 | C37U U63A | 0.24
146 | C37U U63C | 0.0912
147 | C37U A39C | 0.0611
148 | C38G C50U | 0.0995
149 | C38G A41G | 0.618
150 | C38G A41C | 0.264
151 | A36G U53C | 1.08
152 | A39G A59C | 0.122
153 | A39G A59G | 0.116
154 | A39C U55C | 0.188
155 | C38G U70A | 0.144
156 | C37G G68A | 0.14
157 | C37G U70C | 0.531
158 | A39G A45C | 0.122
159 | A39C U53C | 0.42
160 | C37U U58A | 0.48
161 | C37U U58G | 0.553
162 | C37U A59U | 0.16
163 | C37A A45C | 0.189
164 | C38U G42C | 0.177
165 | C38U G42U | 0.2
166 | C38U A71G | 0.681
167 | A39C A47U | 0.151
